Measured values published in patent US20050014931A1 (ABGENIX, published 2005).

Target: BSA (UniProt P02769 25-607)
Experiment: ELISA screen of hybridoma supernatants

Chain of BSA (P02769 25-607 limits assumed): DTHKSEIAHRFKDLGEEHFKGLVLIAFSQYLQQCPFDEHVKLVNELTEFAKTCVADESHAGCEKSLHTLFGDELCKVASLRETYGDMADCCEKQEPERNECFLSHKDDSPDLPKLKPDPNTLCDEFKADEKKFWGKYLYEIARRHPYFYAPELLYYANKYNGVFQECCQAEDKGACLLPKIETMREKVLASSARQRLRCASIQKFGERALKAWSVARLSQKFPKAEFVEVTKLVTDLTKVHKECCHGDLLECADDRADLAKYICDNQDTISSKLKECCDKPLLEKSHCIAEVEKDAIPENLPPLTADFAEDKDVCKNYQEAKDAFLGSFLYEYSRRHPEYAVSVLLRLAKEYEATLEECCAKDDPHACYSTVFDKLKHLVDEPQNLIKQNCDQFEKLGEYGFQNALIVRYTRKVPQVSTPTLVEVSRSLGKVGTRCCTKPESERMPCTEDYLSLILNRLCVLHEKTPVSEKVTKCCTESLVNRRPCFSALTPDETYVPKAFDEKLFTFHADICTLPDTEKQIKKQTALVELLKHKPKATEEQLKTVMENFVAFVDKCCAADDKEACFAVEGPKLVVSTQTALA

| Binder | binding result |
| --- | --- |
| Mab 1F10/7C5 (antibody, V domains shown, also called Mab 7C5) VH: not shown VL: DIELTQSPLSLPVTLGQPASISCRSSQSLVYSDGNTYLNWFQQRPGQSPRRLIYKVSNWDSGVPDRFSGSGSGTDFTLKISRVEAEDVGVYYCMQGTHWPRTFGQGTKVEIKR | no binding |
| Mab 1A2 (antibody, V domains shown) VH: not shown VL: DIELTQSPDFQSVTPKEKVTITCRASQSIGSSLHWYQQKPDQSPKLLIKYASQSFSGVPSRFSGSGSGTDFTLTINSLEAEDAATYYCHQSSSLPRTFGQGTKVEIKR | no binding |
